Results on 1 protein are retold here after PMC5814352 (Nature, 2018).

This series concerns the molecule itself. Nature of the series: crystal structure.

B1: human DNMT3A (R836A) C-terminal domain (residues 628-912) (domain or fragment, UniProt Q9Y6K1-1 628-912, looked up)
chain: AEKRKPIRVLSLFDGIATGLLVLKDLGIQVDRYIASEVCEDSITVGMVRHQGKIMYVGDVRSVTQKHIQEWGPFDLVIGGSPCNDLSIVNPARKGLYEGTGRLFFEFYRLLHDARPKEGDDRPFFWLFENVVAMGVSDKRDISRFLESNPVMIDAKEVSAAHRARYFWGNLPGMNRPLASTVNDKLELQECLEHGRIAKFSKVRTITTASNSIKQGKDQHFPVFMNEKEDILWCTEMERVFGFPVHYTDVSNMSRLARQRLLGRSWSVPVIRHLFAPLKEYFACV
modifications: covalently bound to Zebularine of the 25-mer DNA
For the protein B1, the binding result is reported as “binds”.
